# Entries after “also recorded” stand apart in the source; their conditions may differ.
# B1: Bcl-xL del.C24 BH3 Trap.cFLAG: Bcl-2-like trap mRNA, SEQ ID NO: 83, FLAG tag (nucleic acid)
# chain: ATGTCCCAGAGCAACAGGGAACTCGTAGTCGATTTCTTGTCCTACAAGCTCAGTCAGAAGGGCTACTCTTGGTCCCAATTTTCCGACGTGGAAGAAAATCGGACAGAAGCCCCTGAGGGAACCGAGAGTGAGATGGAGACCCCGTCTGCAATCAACGGGAACCCTTCTTGGCACTTGGCCGACAGTCCCGCTGTGAATGGCGCCACAGGTCACAGTTCATCACTCGACGCTAGAGAAGTTATACCCATGGCAGCAGTCAAGCAAGCTCTGCGGGAGGCCGGCGACGAGTTCGAACTTCGGTACCGCCGAGCTTTTTCTGACCTGACTAGTCAGCTGCATATTACTCCGGGCACTGCGTACCAGTCGTTCGAACAGGTGGTTAATGAACTATTTCGAGACGGCGTGAATTGGGGCAGAATTGTAGCCTTTTTCTCCTTTGGAGGTGCACTGTGTGTCGAGAGCGTCGATAAGGAAATGCAGGTGTTGGTGAGCCGTATCGCGGCCTGGATGGCCACGTATCTGAACGACCATTTGGAACCATGGATCCAAGAAAACGGGGGTTGGGATACTTTCGTGGAGTTATATGGCAACAATGCTGCAGCGGAAAGTCGCAAGGGCCAGGAACGAGACTATAAAGATGACGACGATAAA
# modifications: FLAG tag; Synthetic Bcl-xL del.C24 mRNA sequence with FLAG epitope tag
# B2: Bcl-w (C29S/A128E) BH3 Trap.n9V5: Bcl-2-like trap mRNA, SEQ ID NO: 81, V5 tag (nucleic acid)
# chain: ATGATTCCCAATCCGCTCCTCGGGCTTGACGCTACACCAGCCAGTGCACCAGACACGAGGGCGCTGGTTGCCGATTTCGTGGGATACAAGCTCAGGCAAAAAGGGTACGTAAGCGGTGCCGGGCCCGGGGAGGGACCGGCTGCCGATCCACTCCACCAGGCTATGAGGGCAGCTGGGGACGAATTCGAAACACGCTTTCGGCGGACTTTCTCCGACCTTGCCGCACAGCTACACGTCACTCCCGGGAGCGCTCAGCAGCGCTTCACGCAGGTCTCAGACGAATTGTTCCAAGGCGGCCCTAATTGGGGAAGATTGGTGGCCTTCTTCGTGTTTGGGGCAGCACTGTGCGCTGAGTCCGTGAACAAAGAAATGGAACCCCTCGTTGGCCAAGTCCAAGAATGGATGGTGGAATATCTGGAAACACAGTTAGCGGATTGGATTCACTCATCTGGGGGCTGGGCTGAGTTTACAGCACTGTACGGGGACGGTGCCCTAGAGGAGGCCCGAAGACTGAGGGAAGGCAACTGGGCCAGCGTTCGCACGGTGTTGACCGGCGCGGTTGCTTTGGGCGCTTTGGTTACCGTCGGCGCATTCTTCGCCAGTAAA
# modifications: V5 tag; Synthetic Bcl-w (C29S/A128E)BH3 mRNA sequence with V5 epitope tag
# B3: SQT-Noxa-BH3: mRNA (SEQ ID NO: 52, FLAG) encoding SQT scaffold with Noxa BH3 domain in N-terminus (nucleic acid)
# chain: ATGATCCCAAGACCCGCAGAGCTCGAAGTGGAATGCGCTACCCAACTTAGACGGTTCGGAGACAAGCTGAACTTTCGGCAGAAGCTCCTGGGACTCTCAGAAGCGAAGCCTGCCACCCCCGAAATCCAGGAAATCGTCGACAAGGTCAAGCCGCAGCTTGAGGAAAAGACCAACGAGACTTACGGAAAACTGGAGGCCGTGCAGTATAAGACCCAAGTGTTGGCCTCCACCAACTACTACATTAAGGTCCGCGCCGGCGATAACAAGTACATGCACCTGAAGGTGTTCAATGGTCCTCCGGGACAGAACGCGGACAGGGTGCTGACTGGCTACCAAGTGGACAAGAACAAGGACGACGAGCTGACGGGCTTCGACTACAAGGATGATGATGACAAA
# modifications: FLAG tag; Synthetic SQT-NoxA-BH3 mRNA sequence with FLAG epitope tag
# Key:
# [1] = system: Hep3B cells; test: Co-transfection of SQT-Bim-BH3 mRNA with Bcl-2-like Trap mRNAs, % phase confluence; assay type: cell-based
# Description: C32, Bcl-xL del.C24, Mcl-1 del.N/C(2010), and Bcl-xL (D61A) del.C24.
# [2] = system: Hep3B cells; test: Cell death by YOYO-3 with MC3-formulated LNPs; assay type: cell-based; details: relatively high concentration
# Experimental: The efficacy of mRNAs encoding SQT-BH3 constructs in inducing cell death was tested both in hepatocellular carcinoma cell lines as well as in primary hepatocytes using lipid nanoparticle (LNP)-formulated constructs. Hep3B cells were treated with varying doses (0.78 ng to 50 ng) of MC3-formulated LNPs in the presence of YOYO-3 (Life Technologies), a DNA dye that is taken up preferentially by dead cells that is used to measure the extent of cell death. MC3 lipid nanoparticles included MC3 50%, DSPC 10%, Cholesterol 38.5%, PEG-DMG 1.5%, N:P ˜5.5.
# [3] = system: primary hepatocytes; test: Apoptosis induction by MC3 LNP-formulated mRNAs in primary hepatocytes cultured in vitro; assay type: cell-based; details: LNPs
# [4] = system: HeLa cells; test: Long-term live cell imaging of GFP-positive cells after mRNA transfection; assay type: cell-based
# [5] = molecular target: T1, MCL-1 (Homo sapiens, UniProt Q07820); test: Co-immunoprecipitation in lysates of transfected HeLa cells; assay type: binding; details: lysates of HeLa cells transfected with mRNAs
# T1 construct: performed in lysates of HeLa cells transfected with mRNAs encoding SQT-BH3 constructs; endogenous in cells; host or cells: HeLa
# [6] = system: HeLa cells; test: PARP-1 cleavage by SDS-PAGE and Western blotting after transfection of mRNAs encoding SQT-BH3 constructs; assay type: cell-based; details: 4 hours after transfection
# Description: The cleavage of PARP-1 was detected by the appearance of a faster-migrating band and concomitant loss of the full-length band by SDS-PAGE and Western blotting. Western blotting with anti-actin antibodies served as a loading control.
# T1 sequence (Q07820 whole entry): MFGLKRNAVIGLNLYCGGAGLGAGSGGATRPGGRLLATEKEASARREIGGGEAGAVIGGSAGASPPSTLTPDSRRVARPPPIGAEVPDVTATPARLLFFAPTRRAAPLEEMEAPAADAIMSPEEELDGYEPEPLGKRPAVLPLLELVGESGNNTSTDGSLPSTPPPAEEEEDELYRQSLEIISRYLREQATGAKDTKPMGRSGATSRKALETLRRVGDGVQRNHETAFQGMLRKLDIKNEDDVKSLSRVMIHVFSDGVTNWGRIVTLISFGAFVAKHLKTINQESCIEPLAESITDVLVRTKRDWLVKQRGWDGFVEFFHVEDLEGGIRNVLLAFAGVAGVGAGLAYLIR
Molecule,fate of SQT-BimBH3-transfected cells co-transfected with Trap construct [1],"inhibition of SQT-BH3-induced cell death (% phase confluence) ([1]; co-transfected with SQT-Bim-BH3 mRNA, ratio Trap construct:SQT-BH3 construct 1:2, 24 hour period)",apoptosis and cell death (YOYO-3) [2],PARP-1 cleavage [3],cell-killing activity [4],co-immunoprecipitation of MCL-1 [5],"PARP-1 cleavage, extent [6]"
B1,exhibited substantial apoptosis and cell death,,,,,,
B2,remained alive,most potent inhibitor of SQT-BH3-induced cell death; also recorded: to a substantially greater degree than Bcl-xL (D61A) del.C24 BH3 Trap.cFLAG,,,,,
B3,,,behaved similar to the empty MC3 LNP control and mRNAs encoding SQT,did not,did not show cell-killing activity,able to co-immunoprecipitate,"also induced PARP-1 cleavage, although to a lesser extent than SQT-PUMA-BH3 or SQT-Bim-BH3"

# — patent US20190119357A1, “MESSENGER RIBONUCLEIC ACIDS FOR THE PRODUCTION OF INTRACELLULAR BINDING POLYPEPTIDES AND METHODS OF USE THEREOF” (ModernaTX, Inc., priority 2015, published 2019)
